According to the supplement of paper PMC9112550, “Optimization of the antimicrobial peptide Bac7 by deep mutational scanning” (BMC Biology, 2022):

The sequences below were run on Escherichia coli TOP10 (assay: shrunken log2 fold change of peptide-encoding DNA abundance (4.5 h post-induction vs induction); higher = less antimicrobial activity (less host growth inhibition)). Conditions: time post-induction: 4.5 h; library: site-saturation at positions 5, 18, 19, 20.
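Also: peptides expressed intracellularly from a pBAD plasmid library in pooled LB shake-flask culture, induced with 0.3% L-arabinose, DNA abundance read by NGS, three biological replicates, DESeq2 with apeglm shrinkage.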

Sequence	shrunken log2 fold change
RRIRCRPPRLPRPRPRPPGYPRP	0.422
RRIRWRPPRLPRPRPRPKMPPRP	1.71
RRIRPRPPRLPRPRPRPNLKPRP	-0.0156
RRIRGRPPRLPRPRPRPEWRPRP	1.15
RRIRSRPPRLPRPRPRPGYLPRP	-0.388
RRIRERPPRLPRPRPRPFGDPRP	-0.0107
RRIRGRPPRLPRPRPRPFICPRP	0.268
RRIRDRPPRLPRPRPRPWFWPRP	-0.0329
RRIRYRPPRLPRPRPRPDVKPRP	-0.294
RRIRHRPPRLPRPRPRPQHFPRP	0.0728
RRIRVRPPRLPRPRPRPCGRPRP	0.168
RRIRPRPPRLPRPRPRPGGMPRP	0.189
RRIRFRPPRLPRPRPRPTMCPRP	-0.274
RRIRTRPPRLPRPRPRPTTCPRP	-0.00487
RRIRNRPPRLPRPRPRPMQQPRP	-0.0561
RRIRARPPRLPRPRPRPMWWPRP	0.166
RRIRNRPPRLPRPRPRPQHVPRP	0.000105
RRIRERPPRLPRPRPRPQDGPRP	-0.113
RRIRTRPPRLPRPRPRPNESPRP	-0.379
RRIRWRPPRLPRPRPRPDEMPRP	-0.0412
RRIRDRPPRLPRPRPRPQWMPRP	-0.176
RRIRPRPPRLPRPRPRPQVQPRP	-0.148
RRIRRRPPRLPRPRPRPADYPRP	-0.0547
RRIRWRPPRLPRPRPRPESFPRP	0.528
RRIRQRPPRLPRPRPRPWDKPRP	-0.153

Sequence	shrunken log2 fold change
RRIRCRPPRLPRPRPRPLRTPRP	1.01
RRIRQRPPRLPRPRPRPAINPRP	-0.171
RRIRCRPPRLPRPRPRPTIPPRP	-0.417
RRIRPRPPRLPRPRPRPWGCPRP	-0.0706
RRIRWRPPRLPRPRPRPMDMPRP	-0.0589
RRIRNRPPRLPRPRPRPMKKPRP	0.00302
RRIRTRPPRLPRPRPRPIDSPRP	-0.162
RRIRSRPPRLPRPRPRPPLIPRP	0.191
RRIRNRPPRLPRPRPRPFECPRP	-0.000687
RRIRFRPPRLPRPRPRPKIRPRP	-0.226
RRIRGRPPRLPRPRPRPHGQPRP	0.578
RRIRARPPRLPRPRPRPAVNPRP	0.102
RRIRRRPPRLPRPRPRPCTGPRP	0.0659
RRIRMRPPRLPRPRPRPTCYPRP	0.0375
RRIRIRPPRLPRPRPRPWDMPRP	-0.00715
RRIRHRPPRLPRPRPRPHFMPRP	0.00955
RRIRCRPPRLPRPRPRPAWGPRP	0.193
RRIRCRPPRLPRPRPRPTLSPRP	-0.0995
RRIRDRPPRLPRPRPRPWWMPRP	0.0169
RRIRTRPPRLPRPRPRPHVHPRP	-0.511
RRIRCRPPRLPRPRPRPEMQPRP	0.526
RRIRSRPPRLPRPRPRPIRVPRP	0.047
RRIRWRPPRLPRPRPRPDKIPRP	-0.0504
RRIRERPPRLPRPRPRPGCCPRP	0.131
RRIRSRPPRLPRPRPRPEQHPRP	-0.101

Sequence	shrunken log2 fold change
RRIRTRPPRLPRPRPRPRDQPRP	0.224
RRIRLRPPRLPRPRPRPTWTPRP	-0.0607
RRIRVRPPRLPRPRPRPMCVPRP	0.103
RRIRARPPRLPRPRPRPIWNPRP	-0.0575
RRIRPRPPRLPRPRPRPKAIPRP	0.11
RRIRRRPPRLPRPRPRPFLTPRP	0.228
RRIRYRPPRLPRPRPRPDHIPRP	0.0129
RRIRSRPPRLPRPRPRPFVWPRP	-0.0361
RRIRFRPPRLPRPRPRPHYRPRP	-0.206
RRIRIRPPRLPRPRPRPESTPRP	-0.325
RRIRKRPPRLPRPRPRPETKPRP	0.106
RRIRKRPPRLPRPRPRPNVFPRP	0.154
RRIRVRPPRLPRPRPRPDIQPRP	1.23
RRIRVRPPRLPRPRPRPQMSPRP	-0.233
RRIRYRPPRLPRPRPRPTWAPRP	-0.0132
RRIRPRPPRLPRPRPRPTYKPRP	-0.455
RRIRERPPRLPRPRPRPQTFPRP	-0.0695
RRIRIRPPRLPRPRPRPGGHPRP	-0.0701
RRIRWRPPRLPRPRPRPECCPRP	1.22
RRIRDRPPRLPRPRPRPYMRPRP	-0.0888
RRIRQRPPRLPRPRPRPLYGPRP	0.0686
RRIRIRPPRLPRPRPRPAKCPRP	-0.126
RRIRGRPPRLPRPRPRPPEQPRP	1.29
RRIRIRPPRLPRPRPRPQDGPRP	0.0409
RRIRFRPPRLPRPRPRPNGKPRP	0.0809

Sequence	shrunken log2 fold change
RRIRTRPPRLPRPRPRPNLYPRP	-0.255
RRIRHRPPRLPRPRPRPFHYPRP	-0.0791
RRIRRRPPRLPRPRPRPGDCPRP	0.336
RRIRNRPPRLPRPRPRPFDWPRP	0.0435
RRIRERPPRLPRPRPRPPFTPRP	1.17
RRIRSRPPRLPRPRPRPNIWPRP	-0.0665
RRIRHRPPRLPRPRPRPMSKPRP	-0.203
RRIRERPPRLPRPRPRPSYHPRP	-0.66
RRIRWRPPRLPRPRPRPWIEPRP	0.0929
RRIRNRPPRLPRPRPRPPDPPRP	0.497
RRIRPRPPRLPRPRPRPVQVPRP	-0.119
RRIRIRPPRLPRPRPRPHMPPRP	-1.11
RRIRYRPPRLPRPRPRPNGRPRP	-0.311
RRIRIRPPRLPRPRPRPYQDPRP	-0.0361
RRIRGRPPRLPRPRPRPDVHPRP	0.867
RRIRLRPPRLPRPRPRPGIPPRP	0.215
RRIRARPPRLPRPRPRPDDWPRP	1.12
RRIRQRPPRLPRPRPRPPGWPRP	-0.0951
RRIRPRPPRLPRPRPRPWEMPRP	-0.157
RRIRTRPPRLPRPRPRPVALPRP	0.0946
RRIRYRPPRLPRPRPRPPCVPRP	0.0199
RRIRFRPPRLPRPRPRPFHAPRP	-0.393
RRIRSRPPRLPRPRPRPTMHPRP	0.0312
RRIRARPPRLPRPRPRPKIEPRP	0.173
RRIRGRPPRLPRPRPRPKEVPRP	0.00437

Sequence	shrunken log2 fold change
RRIRERPPRLPRPRPRPKPYPRP	0.082
RRIRVRPPRLPRPRPRPVHTPRP	-0.0364
RRIRYRPPRLPRPRPRPMCIPRP	-0.101
RRIRGRPPRLPRPRPRPMNQPRP	0.0945
RRIRMRPPRLPRPRPRPTRSPRP	1.35
RRIRGRPPRLPRPRPRPDPYPRP	-0.0305
RRIRVRPPRLPRPRPRPHGHPRP	-0.0491
RRIRCRPPRLPRPRPRPLGHPRP	-0.372
RRIRGRPPRLPRPRPRPWVNPRP	0.0175
RRIRHRPPRLPRPRPRPVAQPRP	0.0207
RRIRHRPPRLPRPRPRPWLEPRP	-0.0848
RRIRSRPPRLPRPRPRPFCWPRP	0.651
RRIRERPPRLPRPRPRPHCEPRP	-0.056
RRIRNRPPRLPRPRPRPEVVPRP	-0.252
RRIRYRPPRLPRPRPRPILQPRP	0.049
RRIRYRPPRLPRPRPRPASWPRP	0.299
RRIRYRPPRLPRPRPRPWMHPRP	-0.519
RRIRSRPPRLPRPRPRPFNAPRP	-0.459
RRIRYRPPRLPRPRPRPEKGPRP	-0.00176
RRIRDRPPRLPRPRPRPAEHPRP	-0.0618
RRIRVRPPRLPRPRPRPFWQPRP	0.181
RRIRRRPPRLPRPRPRPGGDPRP	0.48
RRIRVRPPRLPRPRPRPAWKPRP	0.106
RRIRPRPPRLPRPRPRPIVSPRP	-0.117
RRIRKRPPRLPRPRPRPCCQPRP	-0.102
